Measurements published in the Immune Epitope Database (IEDB).

Key:
[1] = target: HLA-A*02:01; assay: IEDB peptide-MHC binding, purified MHC/competitive/fluorescence; ≥ and ≤ were set here for values at or beyond the usual limits of such assays
[2] = target: HLA-A*02:02; assay: IEDB peptide-MHC binding, purified MHC/competitive/radioactivity; filed as Kd, often an IC50 or EC50 that approximates it; ≥ and ≤ were set here for values at or beyond the usual limits of such assays
[3] = target: HLA-A*02:03; assay: as above
[4] = target: HLA-A*02:06; assay: as above
[5] = target: HLA-A*30:02; assay: as above
[6] = target: HLA-B*53:01; assay: as above
[7] = target: HLA-B*51:01; assay: as above
[8] = target: HLA-A*02:01; assay: IEDB peptide-MHC binding, purified MHC/competitive/fluorescence; filed as Kd, often an IC50 or EC50 that approximates it; ≥ and ≤ were set here for values at or beyond the usual limits of such assays
[9] = target: HLA-A*24:02; assay: IEDB peptide-MHC binding, purified MHC/competitive/fluorescence; ≥ and ≤ were set here for values at or beyond the usual limits of such assays
[10] = target: HLA-B*35:01; assay: IEDB peptide-MHC binding, purified MHC/competitive/radioactivity; filed as Kd, often an IC50 or EC50 that approximates it; ≥ and ≤ were set here for values at or beyond the usual limits of such assays; conditions: source organism: Dengue virus 2 Jamaica/1409/1983
[11] = target: HLA-A*26:01; assay: IEDB peptide-MHC binding, purified MHC/competitive/fluorescence; filed as Kd, often an IC50 or EC50 that approximates it; ≥ and ≤ were set here for values at or beyond the usual limits of such assays; conditions: source organism: Influenza A virus (A/Sichuan/2/1987(H3N2))
[12] = target: HLA-B*58:01; assay: IEDB peptide-MHC binding, purified MHC/direct/fluorescence; filed as Kd, often an IC50 or EC50 that approximates it; ≥ and ≤ were set here for values at or beyond the usual limits of such assays; conditions: source organism: Mammarenavirus juninense
[13] = target: HLA-B*15:01; assay: as above; conditions: source organism: Mammarenavirus juninense
[14] = source organism: SARS coronavirus Tor2
[15] = source organism: Lymphocytic choriomeningitis virus (strain Armstrong)
[16] = source organism: Vaccinia virus WR
[17] = source organism: Zaire ebolavirus
[18] = source organism: Dengue virus 3 Martinique/1243/1999
[19] = source organism: Dengue virus 1 Singapore/S275/1990
[20] = source organism: Dengue virus 2 Jamaica/1409/1983
[21] = source organism: Dengue virus 4 Philippines/H241/1956
[22] = source organism: Mycobacterium tuberculosis

Row | Sequence | Kd [2, 16] [nM] | Kd [3, 16] [nM] | Kd [4, 16] [nM] | further results
1 | AKAIITPIV |  |  |  | IC50 ([1]; source organism: Vaccinia virus Copenhagen): ≥ 147000 nM
2 | ALIARCWYL |  |  |  | Kd [2, 14]: 0.196 nM; Kd [3, 14]: 17.1 nM; Kd [4, 14]: 0.982 nM
3 | ALMDLLMFS |  |  |  | Kd [2, 15]: 0.936 nM; Kd [3, 15]: 103 nM; Kd [4, 15]: 13.8 nM
4 | ALTDVEKRI | 74.2 | 1490 | 14400 | 
5 | AQFLYLYAL |  |  |  | Kd [2, 14]: 0.92 nM; Kd [3, 14]: 6.23 nM; Kd [4, 14]: 0.346 nM
6 | ASDTPSATT |  |  |  | IC50 [1, 17]: ≥ 614000 nM
7 | AVITETIPI | 324 | 43.1 | 6.46 | 
8 | AWNVWEVEDY |  |  |  | Kd [5, 18]: ≥ 69700 nM
9 | AYAQMWSLMY |  |  |  | Kd [5, 18]: 169 nM
10 | CPDDQRAWNI |  |  |  | Kd [6, 19]: 120 nM; Kd [7, 19]: 18000 nM
11 | DIKPDNILL |  |  |  | Kd ([8]; source organism: Trichodesmium erythraeum IMS101): ≥ 20000 nM
12 | DIMTSTRTI | 3450 | 78.6 | ≥ 21800 | 
13 | DQNYVCKHTY |  |  |  | Kd [5, 18]: 8020 nM
14 | DSFLLMLCL |  |  |  | IC50 [9, 17]: ≥ 313000 nM
15 | DTCGASINIT | ≥ 23600 | ≥ 70400 | ≥ 69800 | 
16 | DTCLLAISAV | 2460 | 93.1 | 106 | 
17 | DTDIVNNFI | 9320 | 19400 | 15700 | 
18 | ELAAHQKKI |  |  |  | Kd ([3]; source organism: Homo sapiens): 2650 nM
19 | EPETPNMDVI |  |  |  | Kd [6, 18]: 10800 nM

Row | Sequence | Kd [2, 16] [nM] | Kd [3, 16] [nM] | Kd [4, 16] [nM] | further results
20 | ETKRNIARHL | ≥ 50000 | 12400 | ≥ 69800 | 
21 | FAGPVSQHNY |  |  |  | Kd [6, 20]: 435 nM; Kd [10]: 38.4 nM; Kd [5, 20]: 11.6 nM
22 | FLAHLQWFA |  |  |  | Kd [2, 14]: 0.104 nM; Kd [3, 14]: 0.207 nM; Kd [4, 14]: 0.574 nM
23 | FMSMVSHEL |  |  |  | Kd ([8]; source organism: Bacillus anthracis str. A0488): 0.5 nM
24 | FPVSIPITA |  |  |  | Kd [10]: 1.7 nM; Kd [7, 20]: 3720 nM
25 | FTILEYLYI | 1560 | 169 | 267 | 
26 | FTNSQIFNI | 6.89 | 7.11 | 4.79 | 
27 | FVTDYVHEGV | 23.8 | 1.68 | 10.6 | 
28 | FVVFLLVTL |  |  |  | Kd [2, 14]: 217 nM; Kd [3, 14]: 1640 nM; Kd [4, 14]: 37.7 nM
29 | GIVRQRVIP |  |  |  | IC50 [9, 17]: ≥ 151000 nM
30 | GLCNYGGIL | 97.7 | 125 | 1360 | 
31 | GLFGKGGVV |  |  |  | Kd [3, 21]: 9.95 nM
32 | GLRQQLEDI | 43 | 4.72 | 4310 | 
33 | GMQFDKVYL | 13.4 | 277 | 1910 | 
34 | GPLRMVLAFI |  |  |  | Kd [7, 21]: ≥ 35500 nM
35 | GRVNPGTYV |  |  |  | IC50 ([9]; source organism: Variola virus): 74.3 nM
36 | GVDFQESAD |  |  |  | IC50 [9, 17]: ≥ 117000 nM
37 | HAKYMVTDKT | 9030 | ≥ 35000 | ≥ 65100 | 
38 | HLRASTTENA | 488 | 37.9 | ≥ 69800 | 

Row | Sequence | Kd [2, 16] [nM] | Kd [3, 16] [nM] | Kd [4, 16] [nM] | further results
39 | HYWTAQEQH |  |  |  | IC50 ([9]; source organism: Sudan ebolavirus): 51100 nM
40 | IAGLKIEEI | 7660 | 6090 | 1970 | 
41 | ILPDKIDGL | 1.04 | 3.45 | 43.1 | 
42 | IPITAAAWY |  |  |  | Kd [6, 20]: 26.6 nM; Kd [10]: 6.19 nM; Kd [5, 20]: 2.47 nM
43 | ITYGACPRY |  |  |  | Kd [11]: 34.3 nM
44 | IVPDADPPI | 5080 | 10700 | 274 | 
45 | IVSKCIVQSV | 123 | 30.8 | 552 | 
46 | KISVEKIKQT | 1230 | 8960 | ≥ 21000 | 
47 | KLAGGVAVI |  |  |  | IC50 [1, 22]: 120 nM
48 | KLALITVSGL |  |  |  | Kd [3, 21]: 7.32 nM
49 | KLASAIQKA |  |  |  | Kd [3, 20]: 17.9 nM
50 | KLGFDEIKGL |  |  |  | Kd ([8]; source organism: Variola virus): 134 nM
51 | KLIADSIDF |  |  |  | Kd [12]: 1620 nM; Kd [13]: 67.5 nM
52 | KLQERLAKL |  |  |  | IC50 [1, 22]: 100 nM
53 | LAFSIMKSV |  |  |  | Kd [7, 18]: 155 nM
54 | LIFNVKSKLL | 2390 | 6690 | ≥ 28500 | 
55 | LITLILSNKL | 225 | 293 | 633 | 
56 | LLALGCYSQV |  |  |  | Kd ([3]; source organism: Dengue virus 1 Brazil/97-11/1997): 12.7 nM
57 | LLLEWLAEV |  |  |  | Kd [2, 14]: 0.114 nM; Kd [3, 14]: 0.627 nM; Kd [4, 14]: 0.105 nM
